Series [1] has as its target T1, 6×-Histidine (6×-His) fusion protein containing the C-terminal kinase domain of ATM, residues 2712-3056 (Homo sapiens (Human), UniProt Q13315 2712-3056).
T1 construct: also called ATM kinase domain; not shown: 6×-His tag from pET28
T1 sequence: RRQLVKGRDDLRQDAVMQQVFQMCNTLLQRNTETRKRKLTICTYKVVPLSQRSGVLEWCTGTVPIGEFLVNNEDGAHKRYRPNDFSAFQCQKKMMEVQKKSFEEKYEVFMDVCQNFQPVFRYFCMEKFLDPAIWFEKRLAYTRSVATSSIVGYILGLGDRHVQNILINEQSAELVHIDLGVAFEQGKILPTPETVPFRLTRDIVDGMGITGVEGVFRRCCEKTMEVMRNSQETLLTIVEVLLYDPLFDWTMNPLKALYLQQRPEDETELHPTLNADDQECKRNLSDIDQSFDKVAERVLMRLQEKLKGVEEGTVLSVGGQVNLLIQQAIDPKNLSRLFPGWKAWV
In words: co-expression in E. coli; kinase domain remained insoluble. The text has this:
A further aspect of the invention provides a method of producing soluble ATM kinase by contacting the kinase domain of ATM with a fragment of ATM kinase containing Ser¹⁹⁸¹. […] Although the kinase domain was insoluble in bacteria when co-transfected with GST alone or a GST fusion with the ATM target peptide p53 (residues 1-101), a significant percentage was stabilized and solubilized in the presence of the GST-ATM¹⁹⁶¹⁻²⁰⁴⁶ fusion protein. The kinase domain was also solubilized in the presence of the GST-ATM¹⁹⁶¹⁻²⁰⁴⁶ fusion protein containing Ser¹⁹⁸¹→Ala, but remained insoluble in the presence of phosphorylation-mimic fusion peptides, Ser¹⁹⁸¹→Asp and Ser¹⁹⁸¹→Glu. Furthermore, the soluble kinase domain co-purified on glutathione-agarose with the GST-ATM¹⁹⁶¹⁻²⁰⁴⁶ fusion proteins containing wild-type sequence or Ser¹⁹⁸¹→Ala.

Series [2] concerns the molecule itself. Put plainly: SDS-PAGE of the purified fragment (self-association). On the procedure:
As the ATM kinase domain interacts stably with the domain containing the autophosphorylation site, it was determined whether a truncated recombinant ATM molecule that included the phosphorylation and kinase domains would fold properly and have kinase activity. A galactose-inducible pYES plasmid containing 6×-His-FLAG®-tagged ATM¹⁹²³⁻³⁰⁵⁶ was transfected into Saccharomyces cerevisiae and a soluble ATM fragment was recovered. The polypeptide was purified by anti-FLAG® affinity chromatography.

B1: GST-ATM^1961-2046 phosphorylation-mimic fusion peptide Ser^1981→Asp (other)
chain: YADKKSMDDQEKRSLAFEEGDQSTTISSLSEKSKEETGISLQDLLLEIYRSIGEPDSLYGCGGGKMLQPITRLRTYEHEAMWGKAL
notes: not shown: glutathione-S-transferase (GST) as encoded by pGEX-4T-1
With B1, the binding result in series [1] is “no binding”.

B2: GST-ATM^1961-2046 phosphorylation-mimic fusion peptide Ser^1981→Glu (other)
chain: YADKKSMDDQEKRSLAFEEGEQSTTISSLSEKSKEETGISLQDLLLEIYRSIGEPDSLYGCGGGKMLQPITRLRTYEHEAMWGKAL
notes: as for B1
In the case of B2, in series [1], the binding result is given as “no binding”.

B3: 6×-His-FLAG®-tagged ATM^1923-3056 (enzyme)
chain: SSGTIFNDAFWLDLNYLEVAKVAQSCAAHFTALLYAEIYADKKSMDDQEKRSLAFEEGSQSTTISSLSEKSKEETGISLQDLLLEIYRSIGEPDSLYGCGGGKMLQPITRLRTYEHEAMWGKALVTYDLETAIPSSTRQAGIIQALQNLGLCHILSVYLKGLDYENKDWCPELEELHYQAAWRNMQWDHCTSVSKEVEGTSYHESLYNALQSLRDREFSTFYESLKYARVKEVEEMCKRSLESVYSLYPTLSRLQAIGELESIGELFSRSVTHRQLSEVYIKWQKHSQLLKDSDFSFQEPIMALRTVILEILMEKEMDNSQRECIKDILTKHLVELSILARTFKNTQLPERAIFQIKQYNSVSCGVSEWQLEEAQVFWAKKEQSLALSILKQMIKKLDASCAANNPSLKLTYTECLRVCGNWLAETCLENPAVIMQTYLEKAVEVAGNYDGESSDELRNGKMKAFLSLARFSDTQYQRIENYMKSSEFENKQALLKRAKEEVGLLREHKIQTNRYTVKVQRELELDELALRALKEDRKRFLCKAVENYINCLLSGEEHDMWVFRLCSLWLENSGVSEVNGMMKRDGMKIPTYKFLPLMYQLAARMGTKMMGGLGFHEVLNNLISRISMDHPHHTLFIILALANANRDEFLTKPEVARRSRITKNVPKQSSQLDEDRTEAANRIICTIRSRRPQMVRSVEALCDAYIILANLDATQWKTQRKGINIPADQPITKLKNLEDVVVPTMEIKVDHTGEYGNLVTIQSFKAEFRLAGGVNLPKIIDCVGSDGKERRQLVKGRDDLRQDAVMQQVFQMCNTLLQRNTETRKRKLTICTYKVVPLSQRSGVLEWCTGTVPIGEFLVNNEDGAHKRYRPNDFSAFQCQKKMMEVQKKSFEEKYEVFMDVCQNFQPVFRYFCMEKFLDPAIWFEKRLAYTRSVATSSIVGYILGLGDRHVQNILINEQSAELVHIDLGVAFEQGKILPTPETVPFRLTRDIVDGMGITGVEGVFRRCCEKTMEVMRNSQETLLTIVEVLLYDPLFDWTMNPLKALYLQQRPEDETELHPTLNADDQECKRNLSDIDQSFDKVAERVLMRLQEKLKGVEEGTVLSVGGQVNLLIQQAIDPKNLSRLFPGWKAWV
notes: Expressed in S. cerevisiae from pYES2; also called soluble ATM fragment; truncated recombinant ATM; not shown: N-terminal 6×-His and FLAG tags
Consider B3, for which the binding result in series [2] was “binds”.
